A short description of this data set: self-splicing fitness, log relative to wild type (ln ratio); higher = more splicing; Tetrahymena group I intron in knt gene, E. coli kanamycin selection, DiMSum; sequences stand for … in CUCUCU…GGAGGGAAAAGUUAUCAGGCAUGCACCUGGUAGCUAGUCUUUAAACCAAUAGAUUGCAUCGGUUUAAAAGGCAAGACCGUCAAAUUGCGGGAAAGGGGUCAACAGCCGUUCAGUACCAAGUCUCAGGGGAAACUUUGAGAUGGCCUUGCAAAGGGUAUGGUAAUAAGCUGACGGACAUGGUCCUAACCACGCAGCCAAGUCCUAAGUCAACAGAUCUUCUGUUGAUAUGGAUGCAGUUCACAGACUAAAUGUCGGUCGGGGAAGAUGUAUUCUUCUCAUAAGAUAUAGUCGGACCUCUCCUUAAUGGGAGCUAGCGGAUGAAGUGAUGCAACACUGGAGCCGCUGGGAACUAAUUUGUAUGCGAAAGUAUAUUGAUUAGUUUUGGAGUACUCGUGGUCG
In short, it runs like this: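 Pooled colonies went to amplicon sequencing on an Illumina HiSeq 2500 after six replicate transformations. The plates were LB agar with 100 μg/mL carbenicillin, 50 μM IPTG and 0.2% rhamnose, with or without 25 μg/mL kanamycin, incubated overnight at 37°C or 30°C. The E. coli BL21(DE3) library had all eight P1ex-region intron nucleotides randomised, the intron placed in the knt kanamycin-resistance gene on pET-22b(+). DiMSum fitness is the error-weighted combination of replicate fold changes, kanamycin against none, normalised to wild type.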

These results are taken from the supplement of paper PMC7877785.

± gives the uncertainty stated by the source.

On to UCAGAGCAAUAUUACGAGGC, for which the “self-splicing fitness (ln)” value (30 °C) was -1.74 ± 0.43.

Turning to UCACAGCAAUAUUACGGCGC, the “self-splicing fitness (ln)” value (30 °C) was -2.08 ± 0.1 and the “self-splicing fitness (ln)” value (37 °C) is -1.02 ± 0.12.

Take CUGAAGCAAUAUUACGCCAU: the “self-splicing fitness (ln)” value was -3.41 ± 0.31 (30 °C) and -2.52 ± 0.36 (37 °C).

In the case of AAACAGCAAUAUUACGAUCA, the “self-splicing fitness (ln)” value runs as follows: (30 °C) -0.774 ± 0.07; (37 °C) -0.178 ± 0.065.

As for GGUCAGCAAUAUUACGUGAG, the “self-splicing fitness (ln)” value is 0.0154 ± 0.061 (30 °C) and 0.241 ± 0.085 (37 °C).

For the sequence UGUAAGCAAUAUUACGGUCA, the “self-splicing fitness (ln)” value is -0.349 ± 0.08 (30 °C) and 0.113 ± 0.12 (37 °C).

In the case of UAUCAGCAAUAUUACGGAGG, the “self-splicing fitness (ln)” value is -1.18 ± 0.13 (30 °C) and -0.979 ± 0.14 (37 °C).

Turning to GCACAGCAAUAUUACGUGAA, the “self-splicing fitness (ln)” value was 0.0235 ± 0.053 (30 °C) and -0.102 ± 0.068 (37 °C).

Regarding UGGCAGCAAUAUUACGAGAA, the “self-splicing fitness (ln)” value by setting is: (30 °C) -1.11 ± 0.32; (37 °C) -1.62 ± 0.31.

On to AGCCAGCAAUAUUACGACUG, for which the “self-splicing fitness (ln)” value (30 °C) is -2.72 ± 0.091 and the “self-splicing fitness (ln)” value (37 °C) was -1.14 ± 0.095.

Turning to UAUGAGCAAUAUUACGGCAA, the “self-splicing fitness (ln)” value was -2.46 ± 0.38 (30 °C) and -2.15 ± 0.3 (37 °C).

For the sequence ACAGAGCAAUAUUACGAUUC, the “self-splicing fitness (ln)” value was -2.88 ± 0.27 (30 °C) and -1.72 ± 0.31 (37 °C).

Take AGUCAGCAAUAUUACGCAGA: the “self-splicing fitness (ln)” value (30 °C) was -1.64 ± 0.2 and the “self-splicing fitness (ln)” value (37 °C) was -1.45 ± 0.22.

For UACAAGCAAUAUUACGCGUU, the “self-splicing fitness (ln)” value (30 °C) was -2.57 ± 0.096 and the “self-splicing fitness (ln)” value (37 °C) is -1.71 ± 0.093.

Consider AUUAAGCAAUAUUACGCCAU, for which the “self-splicing fitness (ln)” value reads like this: (30 °C) -1.86 ± 0.2; (37 °C) -1.52 ± 0.15.

On to GAGUAGCAAUAUUACGGAGG, for which the “self-splicing fitness (ln)” value by setting is: (30 °C) -3.45 ± 0.36; (37 °C) -0.837 ± 0.36.

In the case of UGCAAGCAAUAUUACGUUAG, the “self-splicing fitness (ln)” value is -2.79 ± 0.14 (30 °C) and -2.02 ± 0.15 (37 °C).

For ACAUAGCAAUAUUACGUAGU, the “self-splicing fitness (ln)” value reads like this: (30 °C) -2.54 ± 0.098; (37 °C) -2.32 ± 0.12.

On to CGGCAGCAAUAUUACGGGCG, for which the “self-splicing fitness (ln)” value (30 °C) is -1.85 ± 0.13 and the “self-splicing fitness (ln)” value (37 °C) is -0.898 ± 0.14.

Turning to GAGGAGCAAUAUUACGGGAC, the “self-splicing fitness (ln)” value is -2.42 ± 0.27 (30 °C) and -2.41 ± 0.27 (37 °C).

For the sequence UUGUAGCAAUAUUACGCGGG, the “self-splicing fitness (ln)” value by setting is: (30 °C) -3 ± 0.25; (37 °C) -2.32 ± 0.16.

Turning to CCUGAGCAAUAUUACGCACU, the “self-splicing fitness (ln)” value is -4.16 ± 0.3 (30 °C) and -2.8 ± 0.24 (37 °C).

Regarding UCAUAGCAAUAUUACGCUUC, the “self-splicing fitness (ln)” value (37 °C) is -2.26 ± 0.23.

Consider CACCAGCAAUAUUACGCAAA, for which the “self-splicing fitness (ln)” value (30 °C) was -4.2 ± 0.27 and the “self-splicing fitness (ln)” value (37 °C) is -2.99 ± 0.2.

Consider ACCCAGCAAUAUUACGGCAC, for which the “self-splicing fitness (ln)” value was -0.669 ± 0.079 (30 °C) and 0.0747 ± 0.12 (37 °C).

UACCAGCAAUAUUACGUAGU: the “self-splicing fitness (ln)” value by setting is: (30 °C) -2.96 ± 0.099; (37 °C) -1.65 ± 0.1.

On to CGUCAGCAAUAUUACGUCUG, for which the “self-splicing fitness (ln)” value reads like this: (30 °C) -0.234 ± 0.062; (37 °C) 0.106 ± 0.08.

Turning to AUCAAGCAAUAUUACGUAUG, the “self-splicing fitness (ln)” value runs as follows: (30 °C) -4.19 ± 0.24; (37 °C) -1.56 ± 0.14.

As to AUCAAGCAAUAUUACGACCG, the “self-splicing fitness (ln)” value by setting is: (30 °C) -1.33 ± 0.15; (37 °C) -0.381 ± 0.18.

Consider GUAUAGCAAUAUUACGGGAG, for which, where the note is “37 °C”, the “self-splicing fitness (ln)” value was -1.77 ± 0.35.

On to CAGUAGCAAUAUUACGCCUU, for which, where the note is “30 °C”, the “self-splicing fitness (ln)” value is -1.35 ± 0.4.

Turning to GCGAAGCAAUAUUACGUAUG, the “self-splicing fitness (ln)” value was -4.39 ± 0.26 (30 °C) and -2.81 ± 0.16 (37 °C).

Consider CUCCAGCAAUAUUACGUCGA, for which the “self-splicing fitness (ln)” value (30 °C) is -4.42 ± 0.27 and the “self-splicing fitness (ln)” value (37 °C) is -2.73 ± 0.17.

Consider GGGUAGCAAUAUUACGAGGC, for which the “self-splicing fitness (ln)” value reads like this: (30 °C) -3.89 ± 0.47; (37 °C) -2.19 ± 0.25.

As for GCUGAGCAAUAUUACGAGAG, the “self-splicing fitness (ln)” value by setting is: (30 °C) -2.49 ± 0.23; (37 °C) -2.41 ± 0.22.

Regarding GCUUAGCAAUAUUACGGCCA, the “self-splicing fitness (ln)” value (37 °C) is -0.846 ± 0.27.

With AUACAGCAAUAUUACGGUUA, the “self-splicing fitness (ln)” value runs as follows: (30 °C) -0.52 ± 0.069; (37 °C) -0.372 ± 0.071.

GAUUAGCAAUAUUACGGACU: the “self-splicing fitness (ln)” value is -0.413 ± 0.086 (30 °C) and -0.223 ± 0.1 (37 °C).

In the case of UACGAGCAAUAUUACGAACU, the “self-splicing fitness (ln)” value by setting is: (30 °C) -3.46 ± 0.48; (37 °C) -2.4 ± 0.24.

In the case of GCAGAGCAAUAUUACGCGAA, the “self-splicing fitness (ln)” value was -4.38 ± 0.24 (30 °C) and -3.44 ± 0.21 (37 °C).

On to CCCGAGCAAUAUUACGACUA, for which the “self-splicing fitness (ln)” value (30 °C) was -2.29 ± 0.36.

Regarding CGGUAGCAAUAUUACGGUUG, the “self-splicing fitness (ln)” value is -0.837 ± 0.069 (30 °C) and -0.0229 ± 0.093 (37 °C).

Turning to CGUAAGCAAUAUUACGAGGU, the “self-splicing fitness (ln)” value runs as follows: (30 °C) -3.63 ± 0.46; (37 °C) -1.71 ± 0.29.

In the case of UUCGAGCAAUAUUACGAAUG, the “self-splicing fitness (ln)” value by setting is: (30 °C) -3.37 ± 0.47; (37 °C) -2.26 ± 0.31.

For the sequence GACUAGCAAUAUUACGGAUG, the “self-splicing fitness (ln)” value is -2.9 ± 0.11 (30 °C) and -1.29 ± 0.1 (37 °C).

Regarding CGAGAGCAAUAUUACGAAGC, the “self-splicing fitness (ln)” value by setting is: (30 °C) -3.7 ± 0.28; (37 °C) -2.02 ± 0.27.

UCGUAGCAAUAUUACGGCUA: the “self-splicing fitness (ln)” value is, setting by setting: (30 °C) -0.508 ± 0.32; (37 °C) -1.81 ± 0.23.

Take CUCGAGCAAUAUUACGCAAA: the “self-splicing fitness (ln)” value is -2.55 ± 0.33 (30 °C) and -3.66 ± 0.46 (37 °C).

Take GUAUAGCAAUAUUACGGGCA: the “self-splicing fitness (ln)” value (30 °C) was -1.34 ± 0.24 and the “self-splicing fitness (ln)” value (37 °C) was -1.35 ± 0.25.

With GUCGAGCAAUAUUACGGACA, the “self-splicing fitness (ln)” value by setting is: (30 °C) -1.8 ± 0.49; (37 °C) -1.95 ± 0.47.

Turning to GCUUAGCAAUAUUACGGUCG, the “self-splicing fitness (ln)” value (30 °C) was -1.78 ± 0.12 and the “self-splicing fitness (ln)” value (37 °C) is -1.41 ± 0.16.

Regarding GCGAAGCAAUAUUACGACGC, the “self-splicing fitness (ln)” value (30 °C) was -1.98 ± 0.47.

In the case of AGGGAGCAAUAUUACGCGUA, the “self-splicing fitness (ln)” value by setting is: (30 °C) -3.21 ± 0.31; (37 °C) -3.16 ± 0.23.

Regarding GACCAGCAAUAUUACGACUU, the “self-splicing fitness (ln)” value reads like this: (30 °C) 0.432 ± 0.065; (37 °C) 0.163 ± 0.076.

For the sequence GUUCAGCAAUAUUACGCCAA, the “self-splicing fitness (ln)” value is, setting by setting: (30 °C) -1.32 ± 0.21; (37 °C) -1.72 ± 0.18.

In the case of CAUAAGCAAUAUUACGUGCG, the “self-splicing fitness (ln)” value is -1.15 ± 0.079 (30 °C) and -0.792 ± 0.098 (37 °C).

On to AUGUAGCAAUAUUACGAAUC, for which the “self-splicing fitness (ln)” value (37 °C) was -2.91 ± 0.29.

As for CUCCAGCAAUAUUACGGUUU, the “self-splicing fitness (ln)” value reads like this: (30 °C) -2.02 ± 0.11; (37 °C) -2.39 ± 0.19.

On to GACGAGCAAUAUUACGCCCU, for which the “self-splicing fitness (ln)” value (30 °C) is -2.99 ± 0.25 and the “self-splicing fitness (ln)” value (37 °C) is -1.47 ± 0.19.

As to ACAAAGCAAUAUUACGAGCC, under “37 °C”, the “self-splicing fitness (ln)” value is -1.97 ± 0.25.

GCCUAGCAAUAUUACGGUUU: the “self-splicing fitness (ln)” value (30 °C) was -0.729 ± 0.05 and the “self-splicing fitness (ln)” value (37 °C) is -0.56 ± 0.062.

Consider UUAAAGCAAUAUUACGCGUA, for which the “self-splicing fitness (ln)” value runs as follows: (30 °C) -0.515 ± 0.12; (37 °C) 0.118 ± 0.14.

In the case of UGCCAGCAAUAUUACGGGCA, the “self-splicing fitness (ln)” value by setting is: (30 °C) -3.85 ± 0.27; (37 °C) -2.48 ± 0.24.
